Substitutions are numbered along the chain they refer to.
Columns and labels:
[1] = target: T1, rat MAG-Fc fusion protein (R&D Systems; 538-MG) (rat; human, UniProt P07722 20-516, limits assumed); experiment: ELISA on coated rat MAG-Fc, purified antibody
T1 construct: Bought reagent coated on ELISA plates; not shown: human Fc
T1 sequence (looked up): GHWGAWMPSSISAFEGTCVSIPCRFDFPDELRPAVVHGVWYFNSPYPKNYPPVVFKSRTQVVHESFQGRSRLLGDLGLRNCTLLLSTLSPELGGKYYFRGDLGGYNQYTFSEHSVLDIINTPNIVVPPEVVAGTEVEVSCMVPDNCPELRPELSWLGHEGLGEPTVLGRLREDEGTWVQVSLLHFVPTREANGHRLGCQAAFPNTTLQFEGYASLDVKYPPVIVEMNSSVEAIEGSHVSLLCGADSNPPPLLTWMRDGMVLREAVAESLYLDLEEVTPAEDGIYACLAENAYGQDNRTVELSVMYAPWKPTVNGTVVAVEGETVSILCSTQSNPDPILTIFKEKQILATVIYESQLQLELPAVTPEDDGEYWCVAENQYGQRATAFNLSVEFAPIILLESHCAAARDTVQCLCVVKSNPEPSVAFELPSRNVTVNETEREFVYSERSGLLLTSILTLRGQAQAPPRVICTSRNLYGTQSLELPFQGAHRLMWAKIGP

[2] = target: T1, rat MAG-Fc fusion protein (R&D Systems; …); experiment: ELISA on coated rat MAG-Fc; purified antibody serially diluted from 5000 ng/ml
Experimental: 96-well Nunc Maxisorp plates were coated overnight at 4° C. with rat MAG-Fc fusion protein (2.5 μg/ml; R&D Systems; Cat.No. 538-MG) in PBS. Plates were washed twice with PBS containing Tween20 (0.1% v/v; PBST) and blocked with PBS containing BSA (1% w/v) for 1 h at room temperature (RT). Purified humanised antibody was adjusted to a starting concentration of 5 μg/ml in blocking buffer and then serial diluted. Antibody samples were incubated 1 h at RT and plates then washed 3× with PBST. Secondary antibody (Goat anti-human light chain specific-peroxidase conjugate; Sigma A-7164) was added diluted 1/5000 in blocking buffer and incubated for 1 h at RT. Wells were washed three times as above and binding detected by adding substrate (OPD tablets dissolved according to instructions; Sigma P-9187). Colour development was monitored and the reaction stopped using 3M H₂SO₄ Colour development was read at 490 nm.

B1: humanised anti-MAG antibody BVh1/CVl1 (antibody, V domains shown)
VH: QVQLVQSGSELKKPGASVKVSCKASGYTFTNYGMNWVRQAPGQGLEWMGWINTYTGEPTYADDFTGRFVFSLDTSVSTAYLQISSLKAEDTAVYYCARNPINYYGINYEGYVMDYWGQGTLVTVSS
VL: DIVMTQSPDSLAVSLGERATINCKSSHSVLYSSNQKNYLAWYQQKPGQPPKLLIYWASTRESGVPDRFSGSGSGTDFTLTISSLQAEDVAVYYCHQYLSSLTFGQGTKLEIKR
notes: The purified material has a mutated human IgG1 constant region (Kabat residues 248 and 250 changed to alanine) and a human kappa light chain; The antibody was also tested as culture supernatant on human MAG, and the constant region is not restated there; also called BVh1/CVl1 mutated IgG1
Q: Does B1 bind [1]?
A: binds

B2: humanised anti-MAG antibody BVh3/CVl3 (antibody, human IgG1, V domains shown)
VH: B1 VH with V93T, Y95F
VL: DIVMTQSPDSLAVSLGERATINCKSSHSVLYSSNQKNYLAWYQQKPGQPPKLLIYWASTRESGVPDRFSGSGSGTDFTLTISSLHTEDVAVYYCHQYLSSLTFGQGTKLEIKR
notes: The antibody was also tested as culture supernatant on human MAG
Q: Does B2 bind [2]?
A: binds
